Key:
[1] = target: soluble β4Gal-T2 (amino acid residues 31-372 of human UDP-galactose: β-N-acetylglucosamine β-1,4-galactosyltransferase, β4Gal-T2) (human) (UniProt O60909); test: cell-based or functional assay
[2] = target: Bovine milk β1,4Gal-transferase (Sigma), mainly representing β4Gal-T1 (bovine) (UniProt P08037); test: cell-based or functional assay
Chain of Bovine milk β1,4Gal-transferase (Sigma), mainly representing β4Gal-T1 (bovine) (P08037 78-402 limits assumed): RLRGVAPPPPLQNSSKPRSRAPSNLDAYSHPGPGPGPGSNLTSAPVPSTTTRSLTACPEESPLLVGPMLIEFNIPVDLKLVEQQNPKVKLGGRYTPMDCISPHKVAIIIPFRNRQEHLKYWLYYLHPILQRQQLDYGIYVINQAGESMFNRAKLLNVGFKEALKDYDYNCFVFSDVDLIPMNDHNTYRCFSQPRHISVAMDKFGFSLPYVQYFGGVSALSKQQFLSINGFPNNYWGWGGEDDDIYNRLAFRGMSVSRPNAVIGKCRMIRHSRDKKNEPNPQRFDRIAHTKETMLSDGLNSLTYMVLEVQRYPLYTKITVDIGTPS

Chain of soluble β4Gal-T2 (amino acid residues 31-372 of human UDP-galactose: β-N-acetylglucosamine β-1,4-galactosyltransferase, β4Gal-T2) (human) (O60909 31-372): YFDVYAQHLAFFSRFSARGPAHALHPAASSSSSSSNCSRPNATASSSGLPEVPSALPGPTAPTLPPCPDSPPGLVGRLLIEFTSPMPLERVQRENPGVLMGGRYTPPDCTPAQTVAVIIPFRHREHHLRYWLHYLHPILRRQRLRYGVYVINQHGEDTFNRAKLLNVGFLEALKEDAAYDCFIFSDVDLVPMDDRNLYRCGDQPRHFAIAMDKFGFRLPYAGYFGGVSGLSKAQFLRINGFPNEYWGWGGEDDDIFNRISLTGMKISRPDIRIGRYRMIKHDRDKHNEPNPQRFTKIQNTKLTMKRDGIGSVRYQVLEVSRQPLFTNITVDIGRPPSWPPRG

concentration of a-lactalbumin to achieve maximum activity with Glc [1]: 0.4 mg/mL
concentration of a-lactalbumin to achieve maximum activity with Glc [2]: 0.1 mg/mL
Substance: α-lactalbumin
